Source: patent publication US20200262930A1 (YALE UNIVERSITY, published 2020)
Numbering of substitutions follows the chain as printed.

B1: H1-L1 (humanized anti-YKL-40 antibody) (antibody, V domains shown)
VH: QIQLVQSGSELKKPGASVKISCKASGYTFTNYGMNWVRQAPGQGLEWMGWINTYTGEPTYADDFKGRFVFSLDTSVSTAYLQISSLKAEDTSVYFCARLGYGKFYVMDYWGQGTSVTVSS
VL: DVVMTQSPLSLPVTLGQPASISCRSSQSLVHSNGNTYLNWYQQRPGQSPRLLIYKVSNRFSGVPDRFSGSGSGTDFTLKISRVEAEDVGVYFCSQSTHVTWTFGGGTKLEIK
notes: Humanized, kappa light chain, human IgG (detected with goat anti-human IgG-HRP; the PK assay uses an anti-IgG1 capture antibody); also called anti-YKL-40 H1-L1
B2: H11-L5 (humanized anti-YKL-40 antibody) (antibody, V domains shown)
VH: QIQLVQSGPEVKQPGASVKISCKASGYTFTNYGMNWVKQAPGQGLKWMGWINTYTGEPTYAQGFTGRFVFSLDTSASTAYLQISSLKAEDMSTYFCARLGYGKFYVMDYWGQGTSVTVSS
VL: B1 VL with V2I, S7T, P12S, L15P, R24K, N39H, Q42L, R44K, R50Q, F92Y
notes: Humanized variant
B3: H2-L1 (humanized anti-YKL-40 antibody) (antibody, V domains shown)
VH: B1 VH with D62Q, D63G, K65T
VL: B1 VL
notes: Humanized variant
B4: H4-L1 (humanized anti-YKL-40 antibody) (antibody, V domains shown)
VH: B1 VH with E46K
VL: B1 VL
notes: Humanized, human IgG (detected with goat anti-human IgG-HRP)
B5: H12-L8 (humanized anti-YKL-40 antibody) (antibody, V domains shown)
VH: B2 VH with T28S, N31T, K46E, Q62D, G63D, T65K
VL: B1 VL with N39H, F92Y
notes: Humanized variant
B6: H11-L1 (humanized anti-YKL-40 antibody) (antibody, V domains shown)
VH: B2 VH
VL: B1 VL
notes: Humanized, human IgG

What follows are binders tested against T1, human CHI3L1/YKL-40 (human, UniProt P36222 22-383) (assay: titration ELISA against human YKL-40).
T1 construct: also called human YKL-40
T1 sequence (P36222 22-383 limits assumed): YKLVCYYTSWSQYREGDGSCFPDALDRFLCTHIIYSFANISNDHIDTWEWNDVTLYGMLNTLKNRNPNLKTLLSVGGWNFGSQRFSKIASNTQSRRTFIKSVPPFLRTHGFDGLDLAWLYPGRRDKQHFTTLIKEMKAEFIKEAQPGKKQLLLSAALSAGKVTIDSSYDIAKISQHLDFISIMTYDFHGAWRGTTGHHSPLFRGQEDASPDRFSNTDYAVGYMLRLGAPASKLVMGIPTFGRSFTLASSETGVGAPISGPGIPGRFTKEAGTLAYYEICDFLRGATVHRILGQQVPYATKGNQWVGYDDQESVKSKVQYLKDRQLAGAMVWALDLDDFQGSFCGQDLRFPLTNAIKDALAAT

Q: Does B1 bind?
A: Result: binds

Q: Does B2 bind?
A: Result: binds

Q: Does B3 bind?
A: Result: binds

Q: Does B4 bind?
A: Result: binds

Q: Does B5 bind?
A: Result: binds

Q: Does B6 bind?
A: Result: binds

What follows are binders tested against T2, murine BRP-39 (murine homologue of CHI3L1/YKL-40) (murine, UniProt Q61362 30-389, limits assumed) (assay: titration ELISA against murine BRP-39).
T2 construct: also called murine YKL-40
T2 sequence (Q61362 30-389 limits assumed): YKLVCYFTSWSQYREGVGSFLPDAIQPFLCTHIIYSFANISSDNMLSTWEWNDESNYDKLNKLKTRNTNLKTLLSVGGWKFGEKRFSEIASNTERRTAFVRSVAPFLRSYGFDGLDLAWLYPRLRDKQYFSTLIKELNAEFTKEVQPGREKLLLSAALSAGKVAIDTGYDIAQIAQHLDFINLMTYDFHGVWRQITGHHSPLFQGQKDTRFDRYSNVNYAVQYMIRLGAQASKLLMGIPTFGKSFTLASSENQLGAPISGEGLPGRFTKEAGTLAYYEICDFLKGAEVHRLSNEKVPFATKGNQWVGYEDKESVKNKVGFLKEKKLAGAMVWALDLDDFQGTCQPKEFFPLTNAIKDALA

Q: Does B2 bind?
A: Result: binds

Q: Does B3 bind?
A: Result: binds

Q: Does B5 bind?
A: Result: binds

These binders were tested against T2, murine BRP-39 (murine homologue of …) (assay: titration ELISA).

Q: How did the “fold difference in affinity among species (human highest)” value (“fold difference” below) turn out when B1 was run?
A: Its value is at most 2 fold.

Q: With B4 as the binder, how does the “fold difference” value read?
A: Its value is at most 2 fold.

Q: B6 was tested. Which “fold difference” value did it give?
A: Its value is at most 2 fold.

These binders were tested against T3, primate (Cynomolgus monkey) CHI3L1/YKL-40 (Cynomolgus monkey, UniProt A0A7N9DGM0 12-373) (assay: titration ELISA).
T3 construct: also called primate CHI3L1/YKL-40

Q: With B1 as the binder, how does the “fold difference” value read?
A: Its value is at most 2 fold.

Q: For B4, which “fold difference” value is on record?
A: Its value is at most 2 fold.

Q: B6 was tested. Which “fold difference” value did it give?
A: Its value is at most 2 fold.
